The record followed here is publication PMC11842806, “Molecular basis of foreign DNA recognition by BREX anti-phage immunity system” (Nature Communications, 2025).

Positions count from the first letter of the chain named. Names and notes keep the numbering of the source.

The target in data set [1] is T1, BrxX:Ocr (BrxX2:Ocr2) (Escherichia coli, UniProt P0DUF9).
T1 construct: gene pglX; full-length BrxX with N-terminal His6 kept plus T7 Ocr with N-His-TEV kept; both expressed in E. coli BW25113; BrxX2:Ocr2 complex; with Protein Ocr (Escherichia phage T7)
T1 sequence (P0DUF9 1-1205): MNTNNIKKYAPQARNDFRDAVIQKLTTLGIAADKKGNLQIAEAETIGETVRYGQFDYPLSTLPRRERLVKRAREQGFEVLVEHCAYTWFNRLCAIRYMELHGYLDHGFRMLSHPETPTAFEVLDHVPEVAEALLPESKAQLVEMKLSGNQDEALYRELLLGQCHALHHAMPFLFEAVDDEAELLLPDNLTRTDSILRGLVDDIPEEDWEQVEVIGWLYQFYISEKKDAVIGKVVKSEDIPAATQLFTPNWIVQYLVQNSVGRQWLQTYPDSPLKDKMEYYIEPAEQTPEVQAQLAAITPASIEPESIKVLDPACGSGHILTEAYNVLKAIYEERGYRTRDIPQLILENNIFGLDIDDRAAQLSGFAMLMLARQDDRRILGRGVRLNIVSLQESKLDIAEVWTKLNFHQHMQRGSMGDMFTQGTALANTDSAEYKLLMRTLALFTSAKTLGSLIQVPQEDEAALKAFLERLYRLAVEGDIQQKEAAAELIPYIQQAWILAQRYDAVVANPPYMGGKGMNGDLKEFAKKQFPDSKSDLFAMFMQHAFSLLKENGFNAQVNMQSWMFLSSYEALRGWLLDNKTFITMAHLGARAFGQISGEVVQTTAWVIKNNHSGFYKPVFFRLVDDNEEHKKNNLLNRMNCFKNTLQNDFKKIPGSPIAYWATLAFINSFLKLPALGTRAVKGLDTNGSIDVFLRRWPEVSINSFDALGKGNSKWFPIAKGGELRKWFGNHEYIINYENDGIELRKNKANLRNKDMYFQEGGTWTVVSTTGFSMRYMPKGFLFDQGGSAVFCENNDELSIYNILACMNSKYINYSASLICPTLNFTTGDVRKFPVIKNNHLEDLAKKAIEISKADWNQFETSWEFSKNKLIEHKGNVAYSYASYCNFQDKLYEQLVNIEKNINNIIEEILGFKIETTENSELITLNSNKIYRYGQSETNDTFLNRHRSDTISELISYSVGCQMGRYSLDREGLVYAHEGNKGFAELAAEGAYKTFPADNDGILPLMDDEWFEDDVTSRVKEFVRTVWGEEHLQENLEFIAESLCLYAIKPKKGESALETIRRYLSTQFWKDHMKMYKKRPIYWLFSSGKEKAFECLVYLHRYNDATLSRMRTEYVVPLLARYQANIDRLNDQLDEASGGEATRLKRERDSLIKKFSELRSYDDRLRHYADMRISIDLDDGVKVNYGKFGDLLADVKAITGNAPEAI
T1 sequence (P03775 1-117 partner): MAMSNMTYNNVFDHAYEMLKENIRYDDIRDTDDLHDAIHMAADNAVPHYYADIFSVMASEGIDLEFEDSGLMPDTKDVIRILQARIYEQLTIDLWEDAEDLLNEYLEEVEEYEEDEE
The experiment in a line: cryoEM structure ([…] A). The data set is classed as binding. As to conditions: Ocr bound, no DNA, Mg2+, CHAPSO, pH 7.5; site: methyltransferase domain pocket; SAM modelled from the DNA-bound structure.

The target in data set [2] is T2, BrxX (PglX) (Escherichia coli HS, UniProt P0DUF9 1-1205).
T2 sequence: T1 sequence (P0DUF9 1-1205)
In words: BLI; SAM; heterogeneous binding, no accurate Kd; EMSA: 20 nM Cy5-DNA, 0.5x TBE pH 8.0, 35 mM NaCl, 5% glycerol, +/-0.5 mM SAM or SAH, 30 min, room temperature; BLI: 20 mM Tris-HCl pH 8.0, 100 mM NaCl, 0.05 mg/mL BSA, 0.02% Tween-20, +/-0.5 mM SAM, 30 C. The settings on record: protein: recombinant; tags: N-His6; label: 5'-biotin on strand 1; blunt. A general note: Biolayer interferometry detects binding as a change in optical thickness at a sensor tip.

Data set [3] concerns the target T2, BrxX (PglX). The experiment in a line: EMSA; non-methylated partner of N9; no cofactor, SAM or SAH; EMSA: 20 nM Cy5-DNA, 0.5x TBE pH 8.0, 35 mM NaCl, 5% glycerol, +/-0.5 mM SAM or SAH, 30 min, room temperature; BLI: 20 mM Tris-HCl pH 8.0, 100 mM NaCl, 0.05 mg/mL BSA, 0.02% Tween-20, +/-0.5 mM SAM, 30 C. As to conditions: protein: recombinant; tags: N-His6; label: 5'-Cy5 on strand 1; blunt. On the technique in general: Mobility shift assays separate free from complexed probe on a gel.

The target in data set [4] is T2, BrxX (PglX). The experiment in a line: BLI; 1:1 fit, stimulated by SAM; Kd only in figure; EMSA: 20 nM Cy5-DNA, 0.5x TBE pH 8.0, 35 mM NaCl, 5% glycerol, +/-0.5 mM SAM or SAH, 30 min, room temperature; BLI: 20 mM Tris-HCl pH 8.0, 100 mM NaCl, 0.05 mg/mL BSA, 0.02% Tween-20, +/-0.5 mM SAM, 30 C. As to conditions: protein: recombinant; tags: N-His6; label: 5'-biotin on strand 1; blunt.

In data set [5] the target is T2, BrxX (PglX). The experiment in a line: EMSA; 0.5 mM SAM; EMSA: 20 nM Cy5-DNA, 0.5x TBE pH 8.0, 35 mM NaCl, 5% glycerol, +/-0.5 mM SAM or SAH, 30 min, room temperature; BLI: 20 mM Tris-HCl pH 8.0, 100 mM NaCl, 0.05 mg/mL BSA, 0.02% Tween-20, +/-0.5 mM SAM, 30 C. As to conditions: protein: recombinant; tags: N-His6; label: 5'-Cy5 on strand 1; blunt.
Data set [6] deals with T2, BrxX (PglX). In words: EMSA; no cofactor; EMSA: 20 nM Cy5-DNA, 0.5x TBE pH 8.0, 35 mM NaCl, 5% glycerol, +/-0.5 mM SAM or SAH, 30 min, room temperature; BLI: 20 mM Tris-HCl pH 8.0, 100 mM NaCl, 0.05 mg/mL BSA, 0.02% Tween-20, +/-0.5 mM SAM, 30 C. The settings on record: protein: recombinant; tags: N-His6; label: 5'-Cy5 on strand 1; blunt.
Data set [7] addresses T3, BrxA (Escherichia coli HS, UniProt P0DUF6 1-213).
T3 sequence: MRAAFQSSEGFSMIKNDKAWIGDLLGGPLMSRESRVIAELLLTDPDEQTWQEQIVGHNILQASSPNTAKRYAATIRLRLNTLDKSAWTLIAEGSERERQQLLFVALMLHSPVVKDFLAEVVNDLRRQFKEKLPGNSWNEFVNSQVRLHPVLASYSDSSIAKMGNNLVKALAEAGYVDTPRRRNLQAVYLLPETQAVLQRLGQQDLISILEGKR
The experiment in a line: EMSA; EMSA: 20 nM Cy5-DNA, 0.5x TBE pH 8.0, 35 mM NaCl, 5% glycerol, +/-0.5 mM SAM or SAH, 30 min, room temperature; BLI: 20 mM Tris-HCl pH 8.0, 100 mM NaCl, 0.05 mg/mL BSA, 0.02% Tween-20, +/-0.5 mM SAM, 30 C. As to conditions: protein: recombinant; tags: N-His6; label: 5'-Cy5 on strand 1; blunt.

Data set [8] addresses T2, BrxX (PglX). The experiment in a line: cryoEM structure (2.2 A); SAM, metal modelled as Mg2+; EMSA: 20 nM Cy5-DNA, 0.5x TBE pH 8.0, 35 mM NaCl, 5% glycerol, +/-0.5 mM SAM or SAH, 30 min, room temperature; BLI: 20 mM Tris-HCl pH 8.0, 100 mM NaCl, 0.05 mg/mL BSA, 0.02% Tween-20, +/-0.5 mM SAM, 30 C. As to conditions: protein: recombinant; tags: N-His6; blunt.
The target of data set [9] is T2, BrxX (PglX). The experiment in a line: EMSA; improved binding; with and without 0.5 mM SAM; EMSA: 20 nM Cy5-DNA, 0.5x TBE pH 8.0, 35 mM NaCl, 5% glycerol, +/-0.5 mM SAM or SAH, 30 min, room temperature; BLI: 20 mM Tris-HCl pH 8.0, 100 mM NaCl, 0.05 mg/mL BSA, 0.02% Tween-20, +/-0.5 mM SAM, 30 C. The settings on record: protein: recombinant; tags: N-His6; label: 5'-Cy5 on strand 1; blunt.

Consider `C[S+](CC[C@H](N)C(=O)O)C[C@H]1O[C@@H](n2cnc3c(N)ncnc32)[C@H](O)[C@@H]1O` (some centres unmarked) [S-adenosyl methionine], for which the “cryoEM structure (2.8 A)” value in data set [1] is “The MTD displayed density for a molecule of SAM”.

B1: 40 bp BREX, biotin (dsDNA)
DNA 1: TCAGTAGTCAAGTCAGTGGTAAGGTCAGGACAGGAGTCAG
DNA 2: CTGACTCCTGTCCTGACCTTACCACTGACTTGACTACTGA
Turning to B1, the binding result in [2] was “binds”.

B2: 40 bp BREX (dsDNA)
DNA 1: B1 DNA 1
DNA 2: B1 DNA 2
B2: the binding result in data set [3] was “binds”.

B3: 20 bp BREX, biotin (dsDNA)
DNA 1: AGTCAGTGGTAAGGTCAGGA
DNA 2: TCCTGACCTTACCACTGACT
Regarding B3, the binding result in [4] was “binds”.

B4: 43 bp, 1 BREX site (dsDNA)
DNA 1: AGTCAGTGGTAAGGTCAGGAATGAGTCAGTTGGCAAGTCAGGA
DNA 2: TCCTGACTTGCCAACTGACTCATTCCTGACCTTACCACTGACT
Consider B4, for which the Kd in data set [5] was ~60 nM; in data set [6] it was ~300 nM. The binding result in data set [7] was “binds”.

B5: 43 bp, 2 BREX sites head-to-tail (H2T) (dsDNA)
DNA 1: B4 DNA 1 with T31G, G33T, C34A, A36G
DNA 2: B4 DNA 2 with T8C, G10T, C11A, A13C
On to B5, for which, in [8], the binding result is listed as “binds”.

B6: 43 bp scrambled (dsDNA)
DNA 1: AGTCAGTAGTGAGGTCAGGAATGAGTCAGTCTCACTGTCAGGA
DNA 2: TCCTGACAGTGAGACTGACTCATTCCTGACCTCACTACTGACT
Consider B6, for which the Kd in data set [5] was ~300 nM. In addition, the binding result in data set [7] is “binds”.

B7: 50 bp BREX (dsDNA)
DNA 1: AGTCATCAGTAGTCAAGTCAGTGGTAAGGTCAGGACAGGAGTCAGCAGGA
DNA 2: TCCTGCTGACTCCTGTCCTGACCTTACCACTGACTTGACTACTGATGACT
Take B7: the binding result in data set [9] is “binds”.

The term Kd denotes a measure of binding affinity in units of concentration.
